Measurements taken from article PMC4686660, “MLLT1 YEATS domain mutations in clinically distinctive Favourable Histology Wilms tumours” (Nature Communications, 2015).
One block for each molecule: values may come before it.

How the values were obtained:
Assay in all cases: ITC; YEATS domain in the measurement cell (90-130 uM), histone peptides in the injection syringe (1.2 mM); 50 mM Hepes pH 7.4, 300 mM NaCl, 5 mM beta-mercaptoethanol, 25 °C; MicroCal ITC200 and TA Nano microcalorimeters; triplicate
[1] = target: wild-type MLLT1 YEATS domain polypeptide (residues 1-138 of human MLLT1) (human) (UniProt Q03111)
[2] = target: MLLT1 YEATS domain polypeptide p.111_113NPP>K (human) (UniProt Q03111)
[3] = target: T1, MLLT1 YEATS domain polypeptide p.112_114PPV>L (human, UniProt Q03111 1-138, p.112_114PPV>L); settings: both partners purified
T1 construct: Somatic mutation found in tumours; source: E. coli BL21(pLysS), purified (Ni-NTA sepharose, size exclusion chromatography)
T1 sequence (looked up): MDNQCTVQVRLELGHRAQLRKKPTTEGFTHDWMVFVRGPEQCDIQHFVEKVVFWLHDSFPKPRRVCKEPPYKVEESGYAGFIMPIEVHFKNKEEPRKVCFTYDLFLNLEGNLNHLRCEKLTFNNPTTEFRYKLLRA

[4] = target: T2, wild-type MLLT1 YEATS domain polypeptide (residues 1-138 of human MLLT1) (human, UniProt Q03111 1-138); settings: both partners purified
T2 construct: MLLT1 (ENL), human, YEATS domain, residues 1-138; codon-optimized DNA in pET28 with a thrombin cleavage site between the 6His tag and the protein; also called ENL; YEATS1; source: E. coli BL21(pLysS), purified (Ni-NTA sepharose, size exclusion chromatography)
T2 sequence (looked up): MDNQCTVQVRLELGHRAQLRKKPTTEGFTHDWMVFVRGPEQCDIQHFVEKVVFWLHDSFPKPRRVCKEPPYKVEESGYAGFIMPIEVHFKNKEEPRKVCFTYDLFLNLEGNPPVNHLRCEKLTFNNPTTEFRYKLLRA

Kd [1]: 140 µM
Kd [2]: 330 µM
Molecule: H3K27ac histone H3 tail peptide

Kd [3]: 107 µM
Kd [4]: 60 µM
B1: H3K9ac histone H3 tail peptide (peptide)
chain: ARTKQTARKST
modifications: acetyl-lysine at K9
